Results on 3 molecules are retold here after EP3205670.

Assay [1] has as its target T1, hRSV F protein (FTM-NN) (hRSV, UniProt P03420). Nature of the assay: competition, AlphaScreen. (In general: Bead proximity is the source of the signal in Alpha formats.)
The target of assay [2] is T1, hRSV F protein (FTM-NN). The assay is described as follows: SPR.

As usually defined, the IC50 is the midpoint of a concentration-inhibition curve. The low end stands for inhibition by little substance, the high end for a need for much substance. In general, Kd refers to the concentration at which binding is half-saturated. A high value points to weaker binding.

T1 sequence (P03420 26-524): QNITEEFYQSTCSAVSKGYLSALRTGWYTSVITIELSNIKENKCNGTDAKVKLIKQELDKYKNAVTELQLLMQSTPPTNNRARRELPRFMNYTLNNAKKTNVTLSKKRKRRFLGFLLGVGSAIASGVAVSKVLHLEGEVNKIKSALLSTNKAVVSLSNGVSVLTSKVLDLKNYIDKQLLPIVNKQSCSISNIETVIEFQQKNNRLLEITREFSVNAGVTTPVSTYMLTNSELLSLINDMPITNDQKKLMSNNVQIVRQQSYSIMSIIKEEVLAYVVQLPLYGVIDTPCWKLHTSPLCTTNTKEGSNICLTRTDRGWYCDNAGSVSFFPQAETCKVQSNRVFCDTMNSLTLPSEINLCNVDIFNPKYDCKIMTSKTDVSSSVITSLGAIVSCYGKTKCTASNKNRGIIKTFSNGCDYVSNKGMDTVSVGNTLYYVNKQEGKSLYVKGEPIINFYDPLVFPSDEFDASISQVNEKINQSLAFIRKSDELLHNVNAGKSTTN

B1: Numax Fab (antibody, V domains shown)
VH: QVTLRESGPALVKPTQTLTLTCTFSGFSLSTAGMSVGWIRQPPGKALEWLADIWWDDKKHYNPSLKDRLTISKDTSKNQVVLKVTNMDPADTATYYCARDMIFNFYFDVWGQGTTVTVSS
VL: DIQMTQSPSTLSASVGDRVTITCSASSRVGYMHWYQQKPGKAPKLLIYDTSKLASGVPSRFSGSGSGTEFTLTISSLQPDDFATYYCFQGSGYPFTFGGGTKVEIK
For the molecule B1, the IC50 with hRSV F protein (FTM-NN) [1] was 0.086 nM.

B2: Synagis Fab (antibody, V domains shown)
VH: QVTLRESGPALVKPTQTLTLTCTFSGFSLSTSGMSVGWIRQPPGKALEWLADIWWDDKKDYNPSLKSRLTISKDTSKNQVVLKVTNMDPADTATYYCARSMITNWYFDVWGAGTTVTVSS
VL: DIQMTQSPSTLSASVGDRVTITCKCQLSVGYMHWYQQKPGKAPKLLIYDTSKLASGVPSRFSGSGSGTEFTLTISSLQPDDFATYYCFQGSGYPFTFGGGTKLEIK
B2 yielded an IC50 with hRSV F protein (FTM-NN) [1] of 0.597 nM.

B3: Synagis (antibody, V domains shown)
VH: QVTLRESGPALVKPTQTLTLTCTFSGFSLSTSGMSVGWIRQPPGKALEWLADIWWDDKKDYNPSLKSRLTISKDTSKNQVVLKVTNMDPADTATYYCARSMITNWYFDVWGAGTTVTVSS
VL: DIQMTQSPSTLSASVGDRVTITCKCQLSVGYMHWYQQKPGKAPKLLIYDTSKLASGVPSRFSGSGSGTEFTLTISSLQPDDFATYYCFQGSGYPFTFGGGTKLEIK
For the molecule B3, the Kd with hRSV F protein (FTM-NN) [2] worked out at 0.64 nM.
